Data reported in patent publication US20260078416A1, “ORTHOGONAL METABOLIC FRAMEWORK FOR ONE-CARBON UTILIZATION” (Mojia Biotech Pte. Ltd., priority 2021, published 2026).

Tested on: formaldehyde
Experiment: Cell-free prototyping of the α-reduction FORCE pathway with E. coli cell extracts
Type: biochemical
Settings: 50 mM formaldehyde
Source text: A cell-free metabolic engineering approach was used to further prototype the FORCE pathways for product synthesis. […] As shown in FIG. 2 (in the formyl-CoA elongation panel), outside of the direct generation of 2-hydroxycarboxylates (e.g. glycolate) via thioester cleavage of the 2-hydroxyacyl-CoA generated by HACL, other C2 products, (including the aldose or aldehyde elongation pathways) require reduction of this 2-hydroxyacyl-CoA (glycolyl-CoA in the case of formaldehyde and formyl-CoA ligation). Listeria monocytogenes ACR (LmACR) are also able to act upon glycolaldehyde. […] With the inclusion of the previously identified HACL from Rhodospirillales bacterium URHD0017 (RuHACL), glycolate was observed.
Upon further addition of E. coli cell extract expressing diol dehydratase (DDR) from Klebsiella oxytoca, along with coenzyme B12, ethanol was detected (1.90±0.03 mM at one hour: FIG. 5b), likely due to the reduction of acetaldehyde by endogenous oxidoreductases, along with a corresponding decrease in ethylene glycol. […]
Enzyme expression and cell extract preparation was performed as described previously. […] Samples were centrifuged at 20817×g for 15 minutes and the supernatant analyzed by HPLC as described previously.

B1: E. coli FucO: E. coli 1,2-diol oxidoreductase, added as cell extract (protein, UniProt P0A9S1 1-382, looked up)
Lactaldehyde reductase: MANRMILNETAWFGRGAVGALTDEVKRRGYQKALIVTDKTLVQCGVVAKVTDKMDAAGLAWAIYDGVVPNPTITVVKEGLGVFQNSGADYLIAIGGGSPQDTCKAIGIISNNPEFADVRSLEGLSPTNKPSVPILAIPTTAGTAAEVTINYVITDEEKRRKFVCVDPHDIPQVAFIDADMMDGMPPALKAATGVDALTHAIEGYITRGAWALTDALHIKAIEIIAGALRGSVAGDKDAGEEMALGQYVAGMGFSNVGLGLVHGMAHPLGAFYNTPHGVANAILLPHVMRYNADFTGEKYRDIARVMGVKVEGMSLEEARNAAVEAVFALNRDVGIPPHLRDVGVRKEDIPALAQAALDDVCTGGNPREATLEDIVELYHTAW
modifications: added as cell extract
notes: E. coli 1,2-diol oxidoreductase, added as cell extract
How did the ethylene glycol synthesis (extract added to LmACR and RuHACL extracts) turn out when B1 was run?
Its ethylene glycol synthesis is 2.73 ± 0.03 mM.

And the “increase in ethylene glycol” value (vs without the added extract)?
The value was 2 fold.
